The values below are quoted from earlier work in patent publication US11739305B2, “Sialyltransferase variants having neosialidase activity” (The Regents of the University of California, priority 2017, dated 2023).

The conditions of data set [1]: CMP-Neu5Ac hydrolysis, wild-type, reported previously (McArthur, Chen, et al. Org. Biomol. Chem. 2017).
The conditions of data set [2]: wild-type, reported previously (Cheng, Chen, et al. Glycobiology 2010).
The conditions of data set [3]: reported previously using Neu5Acα2-6GalβpNP as the substrate (Li, Chen, et al. Mol. BioSyst. 2011).

Like-named read-outs stand apart in the source and are kept apart here.

B1: Pd2,6ST: Photobacterium damselae α2-6-sialyltransferase, wild-type enzyme (GenBank BAA25316.1, SEQ ID NO: 1) (protein, listed as Photobacterium damselae)
chain: MKKILTVLSIFILSACNSDNTSLKETVSSNSADVVETETYQLTPIDAPSSFLSHSWEQTCGTPILNESDKQAISFDFVAPELKQDEKYCFTFKGITGDHRYITNTTLTVVAPTLEVYIDHASLPSLQQLIHIIQAKDEYPSNQRFVSWKRVTVDADNANKLNIHTYPLKGNNTSPEMVAAIDEYAQSKNRLNIEFYTNTAHVFNNLPPIIQPLYNNEKVKISHISLYDDGSSEYVSLYQWKDTPNKIETLEGEVSLLANYLAGTSPDAPKGMGNRYNWHKLYDTDYYFLREDYLDVEANLHDLRDYLGSSAKQMPWDEFAKLSDSQQTLFLDIVGFDKEQLQQQYSQSPLPNFIFTGTTTWAGGETKEYYAQQQVNVINNAINETSPYYLGKDYDLFFKGHPAGGVINDIILGSFPDMINIPAKISFEVLMMTDMLPDTVAGIASSLYFTIPADKVNFIVFTSSDTITDREEALKSPLVQVMLTLGIVKEKDVLFWADHKVNSMEVAIDEACTRIIAKRQPTASDLRLVIAIIKTITDLERIGDVAESIAKVALESFSNKQYNLLVSLESLGQHTVRMLHEVLDAFARMDVKAAIEVYQEDDRIDQEYESIVRQLMAHMMEDPSSIPNVMKVMWAARSIERVGDRCQNICEYIIYFVKGKDVRHTKPDDFGTMLD
On to B1, for which, in data set [1], the Km is 45 ± 14 mM and the catalytic constant (kcat) entry is “(4.0 ± 0.9) × 10^2 min^−1”. Further, in data set [2], the Km is 7.6 ± 0.5 mM and the kcat was 8.2 ± 0.3 min⁻¹.

B2: hNEU2: human NEU2, an α2-3/6/8-sialidase (protein, UniProt Q9Y3R4 1-380, looked up)
Sialidase-2: MASLPVLQKESVFQSGAHAYRIPALLYLPGQQSLLAFAEQRASKKDEHAELIVLRRGDYDAPTHQVQWQAQEVVAQARLDGHRSMNPCPLYDAQTGTLFLFFIAIPGQVTEQQQLQTRANVTRLCQVTSTDHGRTWSSPRDLTDAAIGPAYREWSTFAVGPGHCLQLHDRARSLVVPAYAYRKLHPIQRPIPSAFCFLSHDHGRTWARGHFVAQDTLECQVAEVETGEQRVVTLNARSHLRARVQAQSTNDGLDFQESQLVKKLVEPPPQGCQGSVISFPSPRSGPGSPAQWLLYTHPTHSWQRADLGAYLNPRPPAPEAWSEPVLLAKGSCAYSDLQSMGTGPDGSPLFGCLYEANDYEEIVFLMFTLKQAFPAEYLPQ
As to B2, in data set [3], the Michaelis constant (Km) was 2.1 ± 0.2 mM and the turnover number (kcat) is 10.8 ± 0.6 min⁻¹.

By Km is commonly meant the substrate concentration at which the rate is half of its maximum. The term kcat denotes the number of substrate molecules converted per active site and unit of time at saturation.
